Consider two molecules from PMC8458290 (Nature Communications, 2021).

The target of this experiment is SARS-CoV-2 receptor-binding domain (amino acids 330-532), Victoria strain, biotinylated (SARS-CoV-2, Wuhan/Victoria (B), UniProt P0DTC2, biotinylated (site not stated)). Description: SPR. Conditions: both partners purified.

B1: nanobody F2 (monovalent VHH, pOPINO construct) (VHH)
VHH: QVQLVESGGGLVQAGGSLRLACIASGRTFHSYVMAWFRQAPGKEREFVAAISWSSTPTYYGESVKGRFTISRDNAKNTVYLQMNRLKPEDTAVYFCAADRGESYYYTRPTEYEFWGQGTQVTVSS
Turning to B1, the Kd came out at 0.04 nM.

B2: nanobody C1 (monovalent VHH, pOPINO construct) (VHH)
VHH: QVQLVESGGGLVQPGGSLRLSCAASGFTNDFYSIAWFRQAPGKEREGVSWLSVSDNTPTYVDSVKDRFTISRHNANNTVYLQMNMLKPEDTAIYYCAAGRFAGRDTWPSSYDYWGQGTQVTVSS
For the molecule B2, the dissociation constant Kd was 0.615 nM and the T1/2 is 20 min.
